Assay results taken from patent publication US20120329707A1 (INDIANA UNIVERSITY RESEARCH AND TECHNOLOGY, published 2012).
Numbered stars: 1 amine (or outer) side, 2 acyl side, 3 side chain; on linkers, the order of the positions; unused ones are H or OH. Square brackets hold non-standard residues; d marks the D form. Primed or numbered codes have the meaning given here. Side chains are listed from the residue outwards. Ends that are not written are not given here. * marks the point of attachment. 40K‑TE PEG″ = 40 kDa PEG bound to Cys via thioether made from an iodoacetyl-functionalised PEG; γGlu = O=C(O)[C@H](CCC(=O)[*:2])N[*:1]; Palmitoyl = CCCCCCCCCCCCCCCC(=O)*; Aib = CC(C)(N)C(=O)O

What was measured:
Experiment in all cases: cell-based or functional assay
glucagon receptor = target: glucagon receptor
GLP-1 receptor = target: GLP-1 receptor
GIP receptor = target: T1, GIP receptor
T1 sequence (P48546 whole entry, species assumed, looked up): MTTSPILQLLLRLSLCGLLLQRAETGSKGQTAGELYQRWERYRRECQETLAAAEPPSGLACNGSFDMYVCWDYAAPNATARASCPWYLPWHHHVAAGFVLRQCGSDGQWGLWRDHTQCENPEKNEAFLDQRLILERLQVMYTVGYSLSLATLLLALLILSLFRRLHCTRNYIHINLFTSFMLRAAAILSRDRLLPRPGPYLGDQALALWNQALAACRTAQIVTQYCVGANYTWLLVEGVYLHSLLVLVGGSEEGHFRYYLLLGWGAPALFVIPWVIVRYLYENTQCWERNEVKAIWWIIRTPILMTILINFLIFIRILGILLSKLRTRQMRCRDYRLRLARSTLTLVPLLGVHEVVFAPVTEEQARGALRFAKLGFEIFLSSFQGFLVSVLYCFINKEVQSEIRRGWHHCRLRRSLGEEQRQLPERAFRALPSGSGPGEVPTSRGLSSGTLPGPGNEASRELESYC

For H[dS]QGTFTSDK([γGlu-Palmitoyl])SKYLDERAAQDFVQWLLDGRK-NH2 [peptide of SEQ ID NO: 28], which “EC50 (nM) at glucagon receptor” value (glucagon receptor) is on record?
Its value is 0.015 nM.

And the “EC50 (nM) at GLP-1 receptor” value (GLP-1 receptor)?
Its value is 0.003 nM.

What about the “EC50 (nM) at GIP receptor” value (GIP receptor) of the same binder?
The value was 2.84 nM.

Which “EC50 (nM) at glucagon receptor” value (glucagon receptor) does the source give for H[dS]QGTFTSDK([γGlu-Palmitoyl])SKYLDERAAQDFVQWLLKGRG-NH2 [peptide of SEQ ID NO: 27] here?
The value was 0.022 nM.

And the “EC50 (nM) at GLP-1 receptor” value (GLP-1 receptor)?
Its value is 0.005 nM.

What about the “EC50 (nM) at GIP receptor” value (GIP receptor) of the same binder?
Its value is 2.12 nM.

B1: peptide of SEQ ID NO: 30 (peptide)
peptide: H[Aib]QGTFTSDK([γGlu-Palmitoyl])SKYLD[Aib]RAAQDFVQWLLDGRG-NH2
modifications: N-terminus assumed
SMILES: CCCCCCCCCCCCCCCC(=O)N[C@@H](CCC(=O)NCCCC[C@H](NC(=O)[C@H](CC(=O)O)NC(=O)[C@H](CO)NC(=O)[C@@H](NC(=O)[C@H](Cc1ccccc1)NC(=O)[C@@H](NC(=O)CNC(=O)[C@H](CCC(N)=O)NC(=O)C(C)(C)NC(=O)[C@@H](N)Cc1c[nH]cn1)[C@@H](C)O)[C@@H](C)O)C(=O)N[C@@H](CO)C(=O)N[C@@H](CCCCN)C(=O)N[C@@H](Cc1ccc(O)cc1)C(=O)N[C@@H](CC(C)C)C(=O)N[C@@H](CC(=O)O)C(=O)NC(C)(C)C(=O)N[C@@H](CCCNC(=N)N)C(=O)N[C@@H](C)C(=O)N[C@@H](C)C(=O)N[C@@H](CCC(N)=O)C(=O)N[C@@H](CC(=O)O)C(=O)N[C@@H](Cc1ccccc1)C(=O)N[C@H](C(=O)N[C@@H](CCC(N)=O)C(=O)N[C@@H](Cc1c[nH]c2ccccc12)C(=O)N[C@@H](CC(C)C)C(=O)N[C@@H](CC(C)C)C(=O)N[C@@H](CC(=O)O)C(=O)NCC(=O)N[C@@H](CCCNC(=N)N)C(=O)NCC(N)=O)C(C)C)C(=O)O
Which results are given for B1?
EC50 (nM) at glucagon receptor (glucagon receptor): 0.933 nM; EC50 (nM) at GLP-1 receptor (GLP-1 receptor): 0.0082 nM; EC50 (nM) at GIP receptor (GIP receptor): 9.06 nM

What does the source list for H[Aib]QGTFTSDK([γGlu-γGlu-Palmitoyl])SKYLD[Aib]RAAQDFVQWLMDTK[dA]-OH [peptide of SEQ ID NO: 32]?
EC50 (nM) at glucagon receptor (glucagon receptor): 0.007 nM; EC50 (nM) at GLP-1 receptor (GLP-1 receptor): 0.008 nM; EC50 (nM) at GIP receptor (GIP receptor): 2.08 nM

B2: peptide of SEQ ID NO: 26 (peptide)
peptide: H[Aib]QGTFTSDK([γGlu-γGlu-Palmitoyl])SKYLD[Aib]RAAQDFVQWLK[Aib]GRG-NH2
modifications: N-terminus assumed
SMILES: CCCCCCCCCCCCCCCC(=O)N[C@@H](CCC(=O)N[C@@H](CCC(=O)NCCCC[C@H](NC(=O)[C@H](CC(=O)O)NC(=O)[C@H](CO)NC(=O)[C@@H](NC(=O)[C@H](Cc1ccccc1)NC(=O)[C@@H](NC(=O)CNC(=O)[C@H](CCC(N)=O)NC(=O)C(C)(C)NC(=O)[C@@H](N)Cc1c[nH]cn1)[C@@H](C)O)[C@@H](C)O)C(=O)N[C@@H](CO)C(=O)N[C@@H](CCCCN)C(=O)N[C@@H](Cc1ccc(O)cc1)C(=O)N[C@@H](CC(C)C)C(=O)N[C@@H](CC(=O)O)C(=O)NC(C)(C)C(=O)N[C@@H](CCCNC(=N)N)C(=O)N[C@@H](C)C(=O)N[C@@H](C)C(=O)N[C@@H](CCC(N)=O)C(=O)N[C@@H](CC(=O)O)C(=O)N[C@@H](Cc1ccccc1)C(=O)N[C@H](C(=O)N[C@@H](CCC(N)=O)C(=O)N[C@@H](Cc1c[nH]c2ccccc12)C(=O)N[C@@H](CC(C)C)C(=O)N[C@@H](CCCCN)C(=O)NC(C)(C)C(=O)NCC(=O)N[C@@H](CCCNC(=N)N)C(=O)NCC(N)=O)C(C)C)C(=O)O)C(=O)O
With B2 as the binder, how does the “EC50 (nM) at glucagon receptor” value (glucagon receptor) read?
Its value is 0.106 nM.

What about the “EC50 (nM) at GLP-1 receptor” value (GLP-1 receptor) of the same binder?
The value was 0.004 nM.

And the “EC50 (nM) at GIP receptor” value (GIP receptor)?
The value was 3.29 nM.

B3: peptide of SEQ ID NO: 31 (peptide)
peptide: H[Aib]QGTFTSDK([γGlu-γGlu-Palmitoyl])SKYLD[Aib]RAAQDFVQWLMKGRG-OH
modifications: N-terminus assumed
SMILES: CCCCCCCCCCCCCCCC(=O)N[C@@H](CCC(=O)N[C@@H](CCC(=O)NCCCC[C@H](NC(=O)[C@H](CC(=O)O)NC(=O)[C@H](CO)NC(=O)[C@@H](NC(=O)[C@H](Cc1ccccc1)NC(=O)[C@@H](NC(=O)CNC(=O)[C@H](CCC(N)=O)NC(=O)C(C)(C)NC(=O)[C@@H](N)Cc1c[nH]cn1)[C@@H](C)O)[C@@H](C)O)C(=O)N[C@@H](CO)C(=O)N[C@@H](CCCCN)C(=O)N[C@@H](Cc1ccc(O)cc1)C(=O)N[C@@H](CC(C)C)C(=O)N[C@@H](CC(=O)O)C(=O)NC(C)(C)C(=O)N[C@@H](CCCNC(=N)N)C(=O)N[C@@H](C)C(=O)N[C@@H](C)C(=O)N[C@@H](CCC(N)=O)C(=O)N[C@@H](CC(=O)O)C(=O)N[C@@H](Cc1ccccc1)C(=O)N[C@H](C(=O)N[C@@H](CCC(N)=O)C(=O)N[C@@H](Cc1c[nH]c2ccccc12)C(=O)N[C@@H](CC(C)C)C(=O)N[C@@H](CCSC)C(=O)N[C@@H](CCCCN)C(=O)NCC(=O)N[C@@H](CCCNC(=N)N)C(=O)NCC(=O)O)C(C)C)C(=O)O)C(=O)O
Which results are given for B3?
EC50 (nM) at glucagon receptor (glucagon receptor): 0.016 nM; EC50 (nM) at GLP-1 receptor (GLP-1 receptor): 0.007 nM; EC50 (nM) at GIP receptor (GIP receptor): 2.34 nM

B4: peptide of SEQ ID NO: 29 (peptide)
peptide: H[Aib]QGTFTSDK([γGlu-γGlu-Palmitoyl])SKYLD[Aib]RAAQDFVQWLL[Aib]GRG-NH2
modifications: N-terminus assumed
SMILES: CCCCCCCCCCCCCCCC(=O)N[C@@H](CCC(=O)N[C@@H](CCC(=O)NCCCC[C@H](NC(=O)[C@H](CC(=O)O)NC(=O)[C@H](CO)NC(=O)[C@@H](NC(=O)[C@H](Cc1ccccc1)NC(=O)[C@@H](NC(=O)CNC(=O)[C@H](CCC(N)=O)NC(=O)C(C)(C)NC(=O)[C@@H](N)Cc1c[nH]cn1)[C@@H](C)O)[C@@H](C)O)C(=O)N[C@@H](CO)C(=O)N[C@@H](CCCCN)C(=O)N[C@@H](Cc1ccc(O)cc1)C(=O)N[C@@H](CC(C)C)C(=O)N[C@@H](CC(=O)O)C(=O)NC(C)(C)C(=O)N[C@@H](CCCNC(=N)N)C(=O)N[C@@H](C)C(=O)N[C@@H](C)C(=O)N[C@@H](CCC(N)=O)C(=O)N[C@@H](CC(=O)O)C(=O)N[C@@H](Cc1ccccc1)C(=O)N[C@H](C(=O)N[C@@H](CCC(N)=O)C(=O)N[C@@H](Cc1c[nH]c2ccccc12)C(=O)N[C@@H](CC(C)C)C(=O)N[C@@H](CC(C)C)C(=O)NC(C)(C)C(=O)NCC(=O)N[C@@H](CCCNC(=N)N)C(=O)NCC(N)=O)C(C)C)C(=O)O)C(=O)O
What does the source list for B4?
EC50 (nM) at glucagon receptor (glucagon receptor): 0.014 nM; EC50 (nM) at GLP-1 receptor (GLP-1 receptor): 0.007 nM; EC50 (nM) at GIP receptor (GIP receptor): 1.65 nM

With H[Aib]QGTFTSDYSKYLDERRA[Aib]EFVC(40K‑TE PEG″)WLLDT-NH2 [peptide of SEQ ID NO: 14] as the binder, how does the “EC50 (nM) at glucagon receptor” value (glucagon receptor) read?
Its value is 0.365 nM.

What about the “EC50 (nM) at GLP-1 receptor” value (GLP-1 receptor) of the same binder?
Its value is 0.076 nM.

And the “EC50 (nM) at GIP receptor” value (GIP receptor)?
The value was 33.7 nM.
